Data as given in paper PMC4859522.

Legend:
[1] = molecular target: RSV clinical isolate A2001/2-20 fusion (F) protein (respiratory syncytial virus strain A2001/2-20); assay: co-IP; 293T cells co-transfected with EGFR and an RSV F construct; RIPA lysates 24 h after transfection; F precipitated with motavizumab on protein-A magnetic beads overnight at 4°C, washed in RIPA; blots for EGFR and RSV F, ratio of EGFR to F1
[2] = molecular target: Epidermal growth factor receptor (UniProt P00533)

Substance | fold ratio of co-precipitated EGFR to F, against A2 F [1] [fold] | ratio of p-EGFR to EGFR by Western blot in serum-starved HEp-2 cells 24 h after transfection with 2–20 F, against A2 F [2] [fold]
Epidermal growth factor receptor (from UniProt P00533 25-1210) | 2.8 | –
RSV clinical isolate A2001/2-20 fusion (F) protein (natural protein) | – | 4.45
